Test results from the supplement of paper PMC10567573.

B1: RSPH3 (parent)
chain: MTVKPAKAASLARNLAKRRRTYLG
B2: SETD8 (parent)
chain: KKAQGKTQQNRKLTDFYPVRRSSR

Variants of: B1
Test: protein stability index of a GFP-peptide fusion (GPS, HEK-293T) (PSI 1-6); higher = more stable
Settings: c terminus: a fixed tail appended
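Note: lentivirally expressed fusions sorted by FACS into six bins by GFP to DsRed ratio, PSI derived from sequencing read proportions per bin multiplied by bin number.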

Protein stability index, by site and new letter:
Y22: V 3.99 | K 3.85 | M 2.9 | C 3.63 | W 3.06 | N 3.46 | I 3.37 | H 3.84 | E 3.12 | S 3.23 | R 3.03 | T 3.88 | D 3.31 | G 4.24 | Q 3.93 | F 3.25 | P 3.26 | A 3.81
L23: K 3.5 | Y 3 | H 3.9 | N 3.5 | M 3.53 | S 4.5 | T 4.09 | C 3.28 | P 3.42 | G 4.13 | Q 4.34 | R 3.61 | I 4.26 | D 3.71 | E 4.43 | V 2.96 | A 3.98 | W 3.34 | F 3.2
T21: N 2.98 | P 2.92 | H 2.79 | V 2.83 | C 2.73 | G 2.83 | I 2.54 | A 3.09 | R 3.18 | M 2.7 | D 3.59 | S 3.26 | Y 2.13 | K 3.9 | E 3.47 | L 2.98 | Q 3.21 | W 1.77 | F 1.93
R20: Q 3.83 | M 2.72 | S 2.61 | W 2.2 | Y 1.51 | P 2.81 | T 2.61 | N 2.94 | V 1.63
G24: A 3.33 | Y 2.42 | W 1.63 | N 3.18 | I 2.35 | M 2.38 | T 3.42 | H 2.7 | S 3.15 | L 2.3 | P 3.63 | C 2.64 | E 3.54 | V 2.17 | R 3.46 | F 1.97 | K 2.68 | Q 2.94 | D 2.04

Variants of: B2
Test: as above
Settings: c terminus: a fixed tail appended

Protein stability index, by site and new letter:
A3: E 3.01 | L 3.96 | I 2.84 | W 2.33 | Q 2.4 | K 2.72 | F 2.93 | T 2.43 | V 3.41 | D 3.79 | S 3.47 | Y 2.73 | G 3.27 | N 3.12 | R 3.17
Q8: E 1.69 | W 3.29 | N 2.89 | H 2.59 | F 3.67 | P 2.94 | S 2.69 | C 3.34 | V 3.2 | L 2.41 | M 1.89 | Y 2.02 | D 3.23 | G 2.28 | A 2.45 | R 2.39
T7: M 2.41 | Q 2.66 | H 2.88 | N 3.33 | F 1.95 | D 3.32 | L 3.08 | W 2.88 | S 2.26 | R 3.38 | E 2.9
D15: P 3.1 | S 3.12 | T 3.5 | W 4.09 | R 3.62 | L 2.87 | F 2.74 | G 3.23 | Y 2.77 | N 2.92 | H 2.42 | M 2.43 | V 2.72 | Q 2.36 | C 2.52 | E 4.29 | I 3.18 | A 2.85
Q9: L 2.65 | M 2.25 | R 2.67 | S 2.36 | A 3.26 | E 3.12 | K 3.66 | H 4.29 | D 2.83 | C 3.93 | G 1.89 | P 1.78 | Y 2.92
P18: F 2.61 | D 3.38 | A 3.16 | C 2.47
K2: T 3.1 | N 2.56 | R 2.03 | S 2.12 | Q 1.83 | P 2.13 | I 3.63 | H 3.35 | L 1.57 | G 3.04 | W 3.07 | D 2.65 | Y 2.43 | M 2.54 | F 1.97
Y17: M 3.05 | N 3.09 | Q 4.09 | W 1.41 | F 2.72 | L 2.84 | V 3.37 | T 2.06 | P 5.8 | K 4.5 | E 3.39 | C 3.58 | D 4.52
K6: F 2.16 | T 3.58 | R 3.1 | D 2.54 | M 1.62 | N 2.82 | I 2.09 | S 1.73 | C 3.03 | P 2.06 | V 2.25 | A 3.18 | W 2.33 | G 3.09 | H 1.57
K12: S 2.64 | H 1.53 | N 2.81 | M 2.55 | F 1.93 | T 2.4 | G 2.76 | D 2.98 | E 3.35 | V 2.32 | R 1.86 | P 2.97 | L 3.41 | Y 3
L13: R 5.53 | A 2.67 | S 2.79 | T 3.51 | G 3.42 | H 3.83 | Y 3.47 | E 2.77 | W 4.33 | D 4.69 | N 3.26 | P 3.64 | K 5.04 | C 4.07 | Q 3.79 | F 3.52 | V 2.79
Q4: C 1.64 | D 4.69 | G 2.22 | R 1.99 | Y 2.18 | H 2.73 | K 3.35 | E 1.68 | S 1.13 | I 3.18 | T 1.87 | V 3.42 | L 3.69
N10: P 2.77 | A 1.64 | T 2.17 | R 2.74 | E 2.67 | Y 3.04 | H 3.49 | C 3.63 | I 3.4 | D 4.38 | S 2.35 | M 2.39 | L 2.39 | G 1.42
T14: H 3.1 | M 1.79 | W 3.4 | R 3.11 | D 4.21 | S 2.72 | Q 3.33 | P 2.4 | N 3.49 | I 2.63 | E 4.32 | V 3.67 | G 2.68 | A 3.99 | Y 2.65 | L 3.72
K1: F 2.11 | C 1.22 | L 4.04 | Q 1.99 | G 1.81 | S 2.88 | N 2.13 | E 1.97 | T 2.62 | H 1.54 | V 2.73 | W 2.09 | M 2.54 | R 2.24 | I 4.17
G5: A 1.87 | L 2.77 | S 2.62 | E 2.89 | H 1.83 | R 1.44 | V 2.65 | D 2.89 | Y 2.92 | N 2.53 | I 1.68
F16: M 3.81 | C 2.71 | T 3.17 | I 2.99 | G 2.74 | Y 3.29 | S 3.07 | A 2.54 | H 2.33 | E 4.51 | N 4.28 | D 2.58 | P 3.07 | Q 1.76
R11: D 3.45 | S 2.85 | H 3.68 | F 2.91 | T 2.19 | N 2.86 | V 1.86 | W 2.76 | E 2.15 | Q 2.71 | A 1.6 | P 2.61 | L 2.43 | Y 2.94 | G 1.5 | I 2.45
